Results reported in publication doi:10.1101/2023.08.08.552518.

Biological target: human alpha-thrombin (human, UniProt P00734;P00734 328-363;364-622)
Experiment: BLI

Binder	Kd [nM]
GGTTGGTGTGGTTGG (structured_DNA) [TBA-Bt]	114
TCACTGTGGTTGGTGTGGTTGGTTTTTTTTTTTTACAGTG (structured_DNA) [ISD-Bt]	246
